The record followed here is patent US20040019918.

The data set has as its target GST-MKK4 fusion protein (available from Upstate Biotechnologies, Inc).

B1: purified mouse MEKK2 (protein)
chain: MDDQQALNSIMQDLAVLHKASRPALSLQETRKAKPSSPKKQNDVRVKFEHRGEKRILQVTRPVKLEDLRSKSKIAFGQSMDLHYTNNELVIPLTTQDDLDKAVELLDRSIHMKSLKILLVVNGSTQATNLEPSPSPEDLNNTPLGAERKKRLSVVGPPNRDRSSPPPGYIPDILHQIARNGSFTSINSEGEFIPESMDQMLDPLSLSSPENSGSGSCPSLDSPLDGESYPKSRMPRAQSYPDNHQEFTDYDNPIFEKFGKGGTYPRRYHVSYHHQEYNDGRKTFPRARRTQGTSFRSPVSFSPTDHSLSTSSGSSVFTPEYDDSRIRRRGSDIDNPTLTVTDISPPSRSPRAPTNWRLGKLLGQGAFGRVYLCYDVDTGRELAVKQVQFNPESPETSKEVNALECEIQLLKNLLHERIVQYYGCLRDPQEKTLSIFMELSPGGSIKDQLKAYGALTENVTRKYTRQILEGVHYLHSNMIVHRDIKGANILRDSTGNIKLGDFGASKRLQTICLSGTGMKSVTGTPYWMSPEVISGEGYGRKADIWSVACTVVEMLTEKPPWAEFEAMAAIFKIATQPTNPKLPPHVSDYTRDFLKRIFVEAKLRPSAEELLRHMFVHYH
On to B1, for which the “phosphorylation of GST-MKK4 (32P incorporation from [gamma-32P]-ATP, SDS-PAGE, imaging)” value was “comparable to the activity of purified mouse MEKK2”.

B2: His-tagged hMEKK2 (polyhistidine-hMEKK2 fusion) (protein)
chain: HHHHHHMDDQQALNSIMQDLAVLHKASRPALSLQETRKAKSSSPKKQNDVRVKFEHRGEKRILQFPRPVKLEDLRSKAKIAFGQSMDLHYTNNELVIPLTTQDDLDKAVELLDRSIHMKSLKILLVINGSTQATNLEPLPSLEDLDNTVFGAERKKRLSIIGPTSRDRSSPPPGYIPDELHQVARNGSFTSINSEGEFIPESMDQMLDPLSLSSPENSGSGSCPSLDSPLDGESYPKSRMPRAQSYPDNHQEFSDYDNPIFEKFGKGGTYPRRYHVSYHHQEYNDGRKTFPRARRTQGTSLRSPVSFSPTDHSLSTSSGSSIFTPEYDDSRIRRRGSDIDNPTLTVMDISPPSRSPRAPTNWRLGKLLGQGAFGRVYLCYDVDTGRELAVKQVQFDPDSPETSKEVNALECEIQLLKNLLHERIVQYYGCLRDPQEKTLSIFMEYMPGGSIKDQLKAYGALTENVTRKYTRQILEGVHYLHSNMIVHRDIKGANILRDSTGNVKLGDFGASKRLQTICLSGTGMKSVTGTPYWMSPEVISGEGYGRKADIWSVACTVVEMLTEKPPWAEFEAMAAIFKIATQPTNPKLPPHVSDYTRDFLKRIFVEAKLRPSADELLRHMFVHYH
In the case of B2, the “phosphorylation of GST-MKK4 (32P incorporation from [gamma-32P]-ATP, SDS-PAGE, imaging)” value was “comparable to the activity of purified mouse MEKK2, and significantly above the background levels seen with control extracts”.
